We go through 4 molecules from US20110091994A1, “Methods for Screening Compounds for Treating and/or Preventing an Hepatitis C Virus Infection” (priority 2008, published 2011).

Assay [1] deals with T1, HCV ORFs (Gal4-DB fusions) (Hepatitis C virus genotype 1b, UniProt Q9WMX2).
T1 construct: expressed in transfected cells; host or cells: Saccharomyces cerevisiae MAV203 (IMAP1) / AH109 (IMAP2)
The format is binding, HCV genotype 1b, isolate con1. As to conditions: HCV protein NS3 as bait; human protein as prey.

In assay [2] the test system is HCV ORFs (Gal4-DB fusions). In kind it is binding, HCV genotype 1b, isolate con1. As to conditions: human protein listed by gene symbol; the value names the HCV protein it interacts with.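 Further: yeast two-hybrid screens using HCV genotype 1b proteins fused to Gal4-DB as baits against prey cDNA libraries from human spleen and foetal brain, IMAP1 via transformation and IMAP2 via mating.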
The target in assay [3] is T2, HCV proteins (Hepatitis C virus genotype 1b, UniProt Q9WMX2).
T2 construct: expressed in transfected cells
T2 sequence (Q9WMX2 1027-1657): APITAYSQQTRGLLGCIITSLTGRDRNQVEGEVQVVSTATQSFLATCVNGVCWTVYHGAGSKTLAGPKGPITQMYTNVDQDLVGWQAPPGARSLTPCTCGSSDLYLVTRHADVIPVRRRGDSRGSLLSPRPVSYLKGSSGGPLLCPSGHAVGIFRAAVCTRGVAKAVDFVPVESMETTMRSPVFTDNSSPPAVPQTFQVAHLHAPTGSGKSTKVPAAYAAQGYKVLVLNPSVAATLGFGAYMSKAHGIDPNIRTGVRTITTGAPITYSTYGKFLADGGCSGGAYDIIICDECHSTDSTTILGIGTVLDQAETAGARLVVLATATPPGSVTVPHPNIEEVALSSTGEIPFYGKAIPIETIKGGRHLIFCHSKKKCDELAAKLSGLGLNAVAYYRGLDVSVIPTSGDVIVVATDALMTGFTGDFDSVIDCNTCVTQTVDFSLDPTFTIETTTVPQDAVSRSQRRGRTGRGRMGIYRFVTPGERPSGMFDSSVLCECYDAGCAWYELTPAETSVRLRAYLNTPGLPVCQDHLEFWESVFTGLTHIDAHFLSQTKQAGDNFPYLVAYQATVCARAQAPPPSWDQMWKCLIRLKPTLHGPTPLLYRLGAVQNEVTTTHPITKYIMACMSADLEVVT
The assay can be described thus: Validation by Y2H pairwise matrices.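 Further: yeast two-hybrid pairwise tests of interactions first found in Y2H screens of HCV bait proteins against human cDNA libraries.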 The format is binding. As to conditions: validation of interaction with HCV protein NS3.

T1 sequence (Q9WMX2 1027-1657): as above

B1: ANKRD28 (protein, UniProt O15084 1-1053, looked up)
Serine/threonine-protein …: MAFLKLRDQPSLVQAIFNGDPDEVRALIFKKEDVNFQDNEKRTPLHAAAYLGDAEIIELLILSGARVNAKDSKWLTPLHRAVASCSEEAVQVLLKHSADVNARDKNWQTPLHIAAANKAVKCAEALVPLLSNVNVSDRAGRTALHHAAFSGHGEMVKLLLSRGANINAFDKKDRRAIHWAAYMGHIEVVKLLVSHGAEVTCKDKKSYTPLHAAASSGMISVVKYLLDLGVDMNEPNAYGNTPLHVACYNGQDVVVNELIDCGAIVNQKNEKGFTPLHFAAASTHGALCLELLVGNGADVNMKSKDGKTPLHMTALHGRFSRSQTIIQSGAVIDCEDKNGNTPLHIAARYGHELLINTLITSGADTAKRGIHGMFPLHLAALSGFSDCCRKLLSSGFDIDTPDDFGRTCLHAAAAGGNLECLNLLLNTGADFNKKDKFGRSPLHYAAANCNYQCLFALVGSGASVNDLDERGCTPLHYAATSDTDGKCLEYLLRNDANPGIRDKQGYNAVHYSAAYGHRLCLQLIASETPLDVLMETSGTDMLSDSDNRATISPLHLAAYHGHHQALEVLVQSLLDLDVRNSSGRTPLDLAAFKGHVECVDVLINQGASILVKDYILKRTPIHAAATNGHSECLRLLIGNAEPQNAVDIQDGNGQTPLMLSVLNGHTDCVYSLLNKGANVDAKDKWGRTALHRGAVTGHEECVDALLQHGAKCLLRDSRGRTPIHLSAACGHIGVLGALLQSAASMDANPATADNHGYTALHWACYNGHETCVELLLEQEVFQKTEGNAFSPLHCAVINDNEGAAEMLIDTLGASIVNATDSKGRTPLHAAAFTDHVECLQLLLSHNAQVNSVDSTGKTPLMMAAENGQTNTVEMLVSSASAELTLQDNSKNTALHLACSKGHETSALLILEKITDRNLINATNAALQTPLHVAARNGLTMVVQELLGKGASVLAVDENGYTPALACAPNKDVADCLALILATMMPVSSSSPLSSLTFNAINRYTNTSKTVSFEALPIMRNEPSSYCSFNNIGGEQEYLYTDVDELNDSDSETY
As for B1, in assay [1], the “IMAP Y2H IMAP1 (number of IST)” value came out at 1. The “Interaction with viral protein” value in assay [2] was “NS3”. The Y2H matrices result in assay [3] is listed as “+”.

B2: AEBP1 (protein, UniProt Q8IUX7 26-1158, looked up)
Adipocyte enhancer-binding …: QTVLTDDEIEEFLEGFLSELEPEPREDDVEAPPPPEPTPRVRKAQAGGKPGKRPGTAAEVPPEKTKDKGKKGKKDKGPKVPKESLEGSPRPPKKGKEKPPKATKKPKEKPPKATKKPKEKPPKATKKPKEKPPKATKKPPSGKRPPILAPSETLEWPLPPPPSPGPEELPQEGGAPLSNNWQNPGEETHVEAREHQPEPEEETEQPTLDYNDQIEREDYEDFEYIRRQKQPRPPPSRRRRPERVWPEPPEEKAPAPAPEERIEPPVKPLLPPLPPDYGDGYVIPNYDDMDYYFGPPPPQKPDAERQTDEEKEELKKPKKEDSSPKEETDKWAVEKGKDHKEPRKGEELEEEWTPTEKVKCPPIGMESHRIEDNQIRASSMLRHGLGAQRGRLNMQTGATEDDYYDGAWCAEDDARTQWIEVDTRRTTRFTGVITQGRDSSIHDDFVTTFFVGFSNDSQTWVMYTNGYEEMTFHGNVDKDTPVLSELPEPVVARFIRIYPLTWNGSLCMRLEVLGCSVAPVYSYYAQNEVVATDDLDFRHHSYKDMRQLMKVVNEECPTITRTYSLGKSSRGLKIYAMEISDNPGEHELGEPEFRYTAGIHGNEVLGRELLLLLMQYLCREYRDGNPRVRSLVQDTRIHLVPSLNPDGYEVAAQMGSEFGNWALGLWTEEGFDIFEDFPDLNSVLWGAEERKWVPYRVPNNNLPIPERYLSPDATVSTEVRAIIAWMEKNPFVLGANLNGGERLVSYPYDMARTPTQEQLLAAAMAAARGEDEDEVSEAQETPDHAIFRWLAISFASAHLTLTEPYRGGCQAQDYTGGMGIVNGAKWNPRTGTINDFSYLHTNCLELSFYLGCDKFPHESELPREWENNKEALLTFMEQVHRGIKGVVTDEQGIPIANATISVSGINHGVKTASGGDYWRILNPGEYRVTAHAEGYTPSAKTCNVDYDIGATQCNFILARSNWKRIREIMAMNGNRPIPHIDPSRPMTPQQRRLQQRRLQHRLRLRAQMRLRRLNATTTLGPHTVPPTLPPAPATTLSTTIEPWGLIPPTTAGWEESETETYTEVVTEFGTEVEPEFGTKVEPEFETQLEPEFETQLEPEFEEEEEEEKEEEIATGQAFPFTTVETYTVNFGDF
Turning to B2, the “IMAP Y2H IMAP1 (number of IST)” value in assay [1] amounted to 2. In addition, in assay [2], the “Interaction with viral protein” value is listed as “NS3”. For the same molecule, in assay [3], the Y2H matrices result is “+”.

B3: ACTN1 (protein, UniProt P12814 1-892, looked up)
Alpha-actinin-1: MDHYDSQQTNDYMQPEEDWDRDLLLDPAWEKQQRKTFTAWCNSHLRKAGTQIENIEEDFRDGLKLMLLLEVISGERLAKPERGKMRVHKISNVNKALDFIASKGVKLVSIGAEEIVDGNVKMTLGMIWTIILRFAIQDISVEETSAKEGLLLWCQRKTAPYKNVNIQNFHISWKDGLGFCALIHRHRPELIDYGKLRKDDPLTNLNTAFDVAEKYLDIPKMLDAEDIVGTARPDEKAIMTYVSSFYHAFSGAQKAETAANRICKVLAVNQENEQLMEDYEKLASDLLEWIRRTIPWLENRVPENTMHAMQQKLEDFRDYRRLHKPPKVQEKCQLEINFNTLQTKLRLSNRPAFMPSEGRMVSDINNAWGCLEQVEKGYEEWLLNEIRRLERLDHLAEKFRQKASIHEAWTDGKEAMLRQKDYETATLSEIKALLKKHEAFESDLAAHQDRVEQIAAIAQELNELDYYDSPSVNARCQKICDQWDNLGALTQKRREALERTEKLLETIDQLYLEYAKRAAPFNNWMEGAMEDLQDTFIVHTIEEIQGLTTAHEQFKATLPDADKERLAILGIHNEVSKIVQTYHVNMAGTNPYTTITPQEINGKWDHVRQLVPRRDQALTEEHARQQHNERLRKQFGAQANVIGPWIQTKMEEIGRISIEMHGTLEDQLSHLRQYEKSIVNYKPKIDQLEGDHQLIQEALIFDNKHTNYTMEHIRVGWEQLLTTIARTINEVENQILTRDAKGISQEQMNEFRASFNHFDRDHSGTLGPEEFKACLISLGYDIGNDPQGEAEFARIMSIVDPNRLGVVTFQAFIDFMSRETADTDTADQVMASFKILAGDKNYITMDELRRELPPDQAEYCIARMAPYTGPDSVPGALDYMSFSTALYGESDL
In the case of B3, the “IMAP Y2H IMAP1 (number of IST)” value in assay [1] stood at 9. The “Interaction with viral protein” value in assay [2] was “NS3”. Besides, the Y2H matrices entry in assay [3] is “+”.

B4: ARFIP2 (protein, UniProt P53365 1-341, looked up)
Arfaptin-2: MTDGILGKAATMEIPIHGNGEARQLPEDDGLEQDLQQVMVSGPNLNETSIVSGGYGGSGDGLIPTGSGRHPSHSTTPSGPGDEVARGIAGEKFDIVKKWGINTYKCTKQLLSERFGRGSRTVDLELELQIELLRETKRKYESVLQLGRALTAHLYSLLQTQHALGDAFADLSQKSPELQEEFGYNAETQKLLCKNGETLLGAVNFFVSSINTLVTKTMEDTLMTVKQYEAARLEYDAYRTDLEELSLGPRDAGTRGRLESAQATFQAHRDKYEKLRGDVAIKLKFLEENKIKVMHKQLLLFHNAVSAYFAGNQKQLEQTLQQFNIKLRPPGAEKPSWLEEQ
As to B4, the “IMAP Y2H IMAP1 (number of IST)” value in assay [1] is 1. Besides, the “Interaction with viral protein” value in assay [2] was “NS3”. Also, in assay [3], the Y2H matrices entry is “+”.
